Here are results for 41 sequences from the nanobody polyreactivity screen of Harvey et al. (2022).

A short description of the data set: yeast display, Sf9 membrane polyspecificity reagent, FACS + sequencing; frameworks hold sequencing errors. A digest of the protocol:
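Nanobodies from a synthetic yeast display library (Saccharomyces cerevisiae BJ5465), induced 36–48 hours with galactose, were stained 1 hour at 4 °C with 10% biotinylated, detergent-solubilized Sf9 membrane reagent, enriched on streptavidin microbeads, then FACS-sorted. Anti-HA (expression) and streptavidin (reagent binding) fluorescence set low and high (top ~1%) gates. Polyreactivity labels come from the gate of origin. Genes were colony-PCR amplified, MiSeq 2 × 250 sequenced and filtered by CDR length.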
Take “QVQLQESGGGLVQAGGSLLSCAASGTISYYREMGWYRPAPGKERELVAGIGVGTITYYADSVKGRFTISRDNAKNTVYLQMNSRKPEDTAVYYCAAHIDGNDSHAYWGQGTQVTVSS”: the “polyreactivity (PSR sort gate)” value is reported as “low polyreactivity”.

Turning to “QVQLQESGGGLVQAGGSLLSCAASGTISYYREMGWYRQAPGKERELDAGIGVGTITSYADSVKGRFTISRDNAKNTVYLQMNSLKPEDTAVYYCAAHIDGNDSHAYWGQGTQVTVSC”, the “polyreactivity (PSR sort gate)” value is “low polyreactivity”.

Turning to “QVQLQESGGGLVQAGGSLLSCAASGTISYYREMGWYRQAPGKERELVAGIGVGTITYYADSVKGRITISRDNAKNTVYLQMNSLKPEDTAVYYCEAHIDGNDSHAYWGQGTQVTVSS”, the “polyreactivity (PSR sort gate)” value is recorded as “low polyreactivity”.

Consider “QVQLQESGGGLVQAGGSLRLGCAASGNISDAGYMGWYRQAPGKEREFVAAIAAGSNTNYADSVKGRFTISRDNAKNTVNLQMNSLKPEDTAVFYCAVASYARVQYEYWGQGTQVTVNS”, for which the “polyreactivity (PSR sort gate)” value is “low polyreactivity”.

For “QVQLQESGGGLVQAGGSLRLGCAASGNISDAGYMGWYRQAPGKEREFVAAIAAGSTTNYADSVKGRFTISRDNAKNTVYLQMNSLKPEDTAVFYCAVASYARVQFEYWGQGTQVTVNS”, the “polyreactivity (PSR sort gate)” value is recorded as “low polyreactivity”.

Take “QVQLQESGGGLVQAGGSLRLGCAASGNISDPGYMGWYRQAPGKEREFVAAIAAGSNTNYADSVKGRFTISRDNAKNTVYLLMNSLKPEDTAVFYCAVDSYARVQYEYWGQGTQVTVYS”: the “polyreactivity (PSR sort gate)” value is “low polyreactivity”.

Turning to “QVQLQESGGGLVQAGGSLRLSCAASCTISQEDWMGWYRQAPGKEREFVAAIGLGSNTNYADSLKGRFTISRDNAKNTVYLQMNSLKPEDTAVSYCAVSVWQYSDHVYRGQGTQVTVSS”, the “polyreactivity (PSR sort gate)” value was “low polyreactivity”.

Consider “QVQLQESGGGLVQAGGSLRLSCAASGNFFDADIMGWYRQAPGKERELVASITDGGSTNYADSVKGRFTISRGNTKNTVYLLMNCLKPEDTSVYYCAAIAYPDMPTYFDYNSDYFYWGQGTQVTVSS”, for which the “polyreactivity (PSR sort gate)” value is given as “high polyreactivity”.

Take “QVQLQESGGGLVQAGGSLRLSCAASGNIFEADIMGWYHQAQGKERELVASITDGGSTNYADSVKGRFTINRDNAKNNVYLQMNSLKPEDTAVYYCAAIAYPDIPTYFDYDSDYFYWGQGTQVTVSS”: the “polyreactivity (PSR sort gate)” value is “high polyreactivity”.

Turning to “QVQLQESGGGLVQAGGSLRLSCAASGNIFSAGGMGWYRQAPVNERELVAGIGTGTSTNYADSVKGRFTISRDNAKNTVYLQMNSLKPEDTAVYYCAAAYYSGLSHWYWGQGTQVTVSS”, the “polyreactivity (PSR sort gate)” value is on record as “low polyreactivity”.

As for “QVQLQESGGGLVQAGGSLRLSCAASGNIFSSGVMGWYRQAPGKERELVATINVGANTNYADSVKGRFTISRDNAKNTVYLQMNRLKPEDTAVYYCAVDKGDDGSFYLWGQGTQVTVSS”, the “polyreactivity (PSR sort gate)” value is reported as “high polyreactivity”.

As to “QVQLQESGGGLVQAGGSLRLSCAASGNISVTGFMGWYRQAPGKERELVASIGIGGTTYYADSVKGRFSISRDNAKNTVYLQINSLKPVDTAVYYCAARYLYYAYSYWGQGTQVTVRS”, the “polyreactivity (PSR sort gate)” value is on record as “low polyreactivity”.

With “QVQLQESGGGLVQAGGSLRLSCAASGNIVDADIMGWYRQAPGKERELVASITDGGSTNYADSVKGRFTISSDNAKNTVYLQMNSLKPEDTAVYYCAAIAYPDIPTYFDYDSEYFYWGQGTQVTVSS”, the “polyreactivity (PSR sort gate)” value is “low polyreactivity”.

“QVQLQESGGGLVQAGGSLRLSCAASGNIVDADIMGWYRQAPRKERELVASITDGGSTNYADSVKGRFTISRDNAKNTVYLQMNSLIPEDTAVYYCAAISYPDIPTYFDYDSEYFYWGQGTQVSVSS”: the “polyreactivity (PSR sort gate)” value was “low polyreactivity”.

In the case of “QVQLQESGGGLVQAGGSLRLSCAASGPISGPHVMGWYRQAPGKEREFVAAINVGANTYYADNVKGRFTISRDNATNTVYLQMNSLKPEDTAVYYCAAVYYGDIGHEYWGQGTQVTVSC”, the “polyreactivity (PSR sort gate)” value is reported as “low polyreactivity”.

Take “QVQLQESGGGLVQAGGSLRLSCAASGSIFDYVSMGWYRQAPGEERELVVTITLGSNTYYADSVKGRFTISSDIAKNTVYLQMNSLNPEDTAVYYCAPSALWGYVYPYWGLGTQVTVSS”: the “polyreactivity (PSR sort gate)” value is reported as “high polyreactivity”.

On to “QVQLQESGGGLVQAGGSLRLSCAASGSIFLFYTMGWYRQAPVKEREFVAGITLGTTTYNADSVKGRFTISRDNVKNTVYLQMNSLKPEDTAVYYCNAVGDARYNYWGQGTQVTVSS”, for which the “polyreactivity (PSR sort gate)” value is given as “high polyreactivity”.

Regarding “QVQLQESGGGLVQAGGSLRLSCAASGSIFNVVDMGLYRQAPAKEREFVATIGEGGNTYYADSLKGSFTISRDNAKNTVYLQMNSLKPEDTAVYFYAVVLGTSFRYTYWGQGTQVTVSS”, the “polyreactivity (PSR sort gate)” value is “low polyreactivity”.

As for “QVQLQESGGGLVQAGGSLRLSCAASGSISGPHLMGWYRQAPGQEREFVAAINVGANTYYADNVKGRFTISRDNAKNTLYLQMNSLKPEDTAVYYCAAVYYGDIGHEYWGQGTQVTVSC”, the “polyreactivity (PSR sort gate)” value was “low polyreactivity”.

As for “QVQLQESGGGLVQAGGSLRLSCAASGSISNSAAKVWYRQAPGKERELVVSIGHGASSNYADSVKGRFTISRDNAKNTVYLQMNSLKPEDTAVYYCAAYPGFLDGFFYWGQSTQVTVSS”, the “polyreactivity (PSR sort gate)” value was “high polyreactivity”.

As to “QVQLQESGGGLVQAGGSLRLSCAASGSISRLDYMGWYRQPSGKERELVAAIDNGSTTYYADSVKGRLTISRDNAKYTVYLQMNSLKPEDTAVYFCAAVRGRGGTHAYWGQGTQVTVSG”, the “polyreactivity (PSR sort gate)” value is on record as “low polyreactivity”.

Turning to “QVQLQESGGGLVQAGGSLRLSCAASGSISSRDAMGWYRQAPGKEREFVATIASGTTTYYADSVKGSFTISRDNAENTLYLQTNSLKPEDTAVYYCAAPTIQIYPFYYWGQGTQVTVSS”, the “polyreactivity (PSR sort gate)” value is reported as “high polyreactivity”.

Take “QVQLQESGGGLVQAGGSLRLSCAASGTISDSGLMGWYRQAPVKERELVAGIRSGGITNYADSVKGRFTISRDNAKNTVYLQMNSLKPEDTAVYWGQGTQVTVSS”: the “polyreactivity (PSR sort gate)” value was “low polyreactivity”.

Turning to “QVQLQESGGGLVQAGGSLRLSCAASGTISQEDWMGWYRQAPGKEREFVAAIGLGSNTNYADSLKGRFSISRDPAKITVYLQMNSLKPEDTAVYYCAVSVWQYSDHVYRGQGTQVTVSS”, the “polyreactivity (PSR sort gate)” value is given as “low polyreactivity”.

Turning to “QVQLQESGGGLVQAGGSLRLSCAASGTISYAPHMGWYRQAPGKERELVAGITIGGTTYYADIVIGRFTISRDNAKNTVFLQMNSLSPGDTAVYYCAAHSEQYTPFYYWGQGTQVTVSS”, the “polyreactivity (PSR sort gate)” value is recorded as “low polyreactivity”.

Take “QVQLQESGGGLVQAGGSLRLSCAASGTISYAPHMGWYRQAPGTDSELVAGITIGGTTYYADSVKGRFTISRDNAKNTVYLQMNSLSPGDTAVYYCAAHSEQYTPFYYWGQGTQVTVSS”: the “polyreactivity (PSR sort gate)” value was “low polyreactivity”.

As for “QVQLQESGGGLVQAGGSLRLSCAASGTITVLYKMGWFRLAPGKEREFVASINYGTSTYYADSVKGRFTVSRDSAKNTVYLQMNSLKPEDTAVYYCAAAYRWQDVYRYWGQGTQVTVSS”, the “polyreactivity (PSR sort gate)” value was “low polyreactivity”.

In the case of “QVQLQESGGGLVQAGGSLRLSCAASGTITVLYKMVWFRQAPGKEREFVASINYGTSTYYADSVKGRFTVSRDSAKNTVYLQMNSLKPEDTAVYYCAAAYRWQDVYRYWGQGTQVTVSS”, the “polyreactivity (PSR sort gate)” value is on record as “low polyreactivity”.

Turning to “QVQLQESGGGLVQAGGSLRLSCAASGTNFYKDDMGWYRQAPGKEREFVAGIDRGGTTNCAGSVKGRFTISRDNAKNTVYLQMISLKPEDTAVYYCAAYYPDIYPFIYRGQGTQVTVSS”, the “polyreactivity (PSR sort gate)” value was “high polyreactivity”.

Turning to “QVQLQESGGGLVQAGGSLRLSCAASGYIFPRIYMGWYRQAPGKEREFDAGISYDAITNYADSVKGRYTISLDNAKNTVYLQMNSLKPEDTAVYYCAVSYYGTPLFTYWGQGTQVTVSS”, the “polyreactivity (PSR sort gate)” value is “high polyreactivity”.

As for “QVQLQESGGGLVQAGGSLRLSCAASGYISFSGYIGRYRQAPGKEREFVDSITPGRSTYYADSVKGRFTISRDNAENTVYLQMNSLKPEDTAVYYCAADDSRTEQHAYWGQGTQVTVSS”, the “polyreactivity (PSR sort gate)” value is on record as “high polyreactivity”.

Turning to “QVQLQESGGGLVQAGGSLRLSCAASGYISHADEMGWYRQAPGKEHELVASISNGGSTNYADSVKGRFTISRDNAKNTVYQQMNSLKSEYTAVYYCAALTGQVDIHYYWCQGTQVTVSS”, the “polyreactivity (PSR sort gate)” value is on record as “low polyreactivity”.

Turning to “QVQLQESGGGLVQAGGSLRLSCAASGYISHADEMGWYRQAPGLEHELVASISNGGSTNYADSVKGLFTISRDNAKNTEYLQLNSLKSEDTAVYYCAAWTGQVDIHYYWGQGTQVTVSS”, the “polyreactivity (PSR sort gate)” value was “low polyreactivity”.

For “QVQLQESGGGLVQAGGSLRLSCAASGYISYFVGMGWYRQAPGKEREFVASIADGSYTYYADSVKGRFTISRDNAKNTVYLQRNSLKPEDTAVYYCAVEDSWTYRFDYWGQGTQVTVSS”, the “polyreactivity (PSR sort gate)” value is reported as “high polyreactivity”.

In the case of “QVQLQESGGGLVQAGGSLRLSCAASGYISYLDFMGWYRQAPGKERELVAGITTGATTNYADSVKGRFTISRDNAKNIVYHQMNSLKPEDTAVYYCAVIGGDTRGHPYWGQGSQVTVSS”, the “polyreactivity (PSR sort gate)” value is “low polyreactivity”.

As to “QVQLQESGGGLVQAGGSLRLSCAASSNNSTLDDMCWYRQAPGKEREFVASIGSGGITNYADSVKGRFTISRDNAKNTVYLQMNSLKPEDTAVYYCAVLNQAYTDLIYWGQGTQVTVSS”, the “polyreactivity (PSR sort gate)” value was “high polyreactivity”.

Consider “QVQLQESGGGLVQAGGSLRLSCAASSNNSTLDVMGWYRQAPGKEREFVASIGSGGITNYADSVKGRFTISRDNAKNTVYLQMNSLKPEDTAVYYCAVLNQAYTDLIYWGQGTLVTVSS”, for which the “polyreactivity (PSR sort gate)” value was “high polyreactivity”.

For “QVQLQESGGGLVQAGGSLRLSCASSGYISQSSVMGWYRQAPGKEREFVASISYGATTYYADSVKGRFTISRDNAKNTVYLQTNSPKPEDTAVYYCAVWVKRGFSHRYWGQGTQVTVSS”, the “polyreactivity (PSR sort gate)” value was “high polyreactivity”.

On to “QVQLQESGGGLVQAGGSLRLSCAVSGTIFFPLDMGWYRQAPGREREYVAAIAEGTSTYYADSVKGRFTISRDNAKNTVYPQMYSLKPEDTAVYYCAAYRSTPQQFHYWGQGTQVTVSS”, for which the “polyreactivity (PSR sort gate)” value is “high polyreactivity”.

In the case of “QVQLQESGGGLVQAGGSLRLSCSASGTISDSGLMGWYRQAPGKERELVAGISSGGITNDADSVNRRFTISRDNALFTVYLQMNSLKPEDTALYWGEGTQVTVSS”, the “polyreactivity (PSR sort gate)” value is “low polyreactivity”.

“QVQLQESGGGLVQAGGSLRLSSAASGTIFRFRYMGWHRQAPGKERELVAGINGGTTTYYADSVIGRFTISRDNAKNTVYLQMNSLKPDDTAVYNCAAGASRLTYYDYWGQGTQVTVSS”: the “polyreactivity (PSR sort gate)” value is on record as “low polyreactivity”.
